# Results as given in publication PMC3408474, “Constitutive Phosphorylation of Interferon Receptor A-Associated Signaling Proteins in Systemic Lupus Erythematosus” (PLoS ONE, 2012).
# T1: IFNAR2 chain of the type I interferon receptor (IFNAR) (human (endogenous in PBMC), UniProt P48551 27-515)
# T1 construct: IFNAR2 chain of the human type I interferon receptor, endogenous in peripheral blood mononuclear cells; precipitated with rabbit anti-IFNAR2 and protein G-Sepharose; source: endogenous, lysate of PBMC from SLE patients or healthy controls
# T1 sequence (looked up): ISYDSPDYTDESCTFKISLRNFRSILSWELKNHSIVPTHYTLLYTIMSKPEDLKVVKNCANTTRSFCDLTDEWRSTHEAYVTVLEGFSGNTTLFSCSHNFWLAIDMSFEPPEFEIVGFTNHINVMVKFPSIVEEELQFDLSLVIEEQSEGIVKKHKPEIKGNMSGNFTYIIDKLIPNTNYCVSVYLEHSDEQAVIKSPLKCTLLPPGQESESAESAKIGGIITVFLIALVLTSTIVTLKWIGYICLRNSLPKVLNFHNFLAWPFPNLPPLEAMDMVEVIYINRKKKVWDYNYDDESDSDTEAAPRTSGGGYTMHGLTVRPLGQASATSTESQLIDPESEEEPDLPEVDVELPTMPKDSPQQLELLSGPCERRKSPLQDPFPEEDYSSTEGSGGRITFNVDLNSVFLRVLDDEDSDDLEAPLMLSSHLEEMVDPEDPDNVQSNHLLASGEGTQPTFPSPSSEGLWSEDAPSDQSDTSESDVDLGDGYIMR
# T2: IFNAR1 chain of the type I interferon receptor (IFNAR) (human (endogenous in PBMC), UniProt P17181 28-557)
# T2 construct: IFNAR1 chain of the human type I interferon receptor, endogenous in peripheral blood mononuclear cells; precipitated with mouse anti-IFNAR1 and protein A-Sepharose; source: endogenous, lysate of PBMC from SLE patients or healthy controls
# T2 sequence (looked up): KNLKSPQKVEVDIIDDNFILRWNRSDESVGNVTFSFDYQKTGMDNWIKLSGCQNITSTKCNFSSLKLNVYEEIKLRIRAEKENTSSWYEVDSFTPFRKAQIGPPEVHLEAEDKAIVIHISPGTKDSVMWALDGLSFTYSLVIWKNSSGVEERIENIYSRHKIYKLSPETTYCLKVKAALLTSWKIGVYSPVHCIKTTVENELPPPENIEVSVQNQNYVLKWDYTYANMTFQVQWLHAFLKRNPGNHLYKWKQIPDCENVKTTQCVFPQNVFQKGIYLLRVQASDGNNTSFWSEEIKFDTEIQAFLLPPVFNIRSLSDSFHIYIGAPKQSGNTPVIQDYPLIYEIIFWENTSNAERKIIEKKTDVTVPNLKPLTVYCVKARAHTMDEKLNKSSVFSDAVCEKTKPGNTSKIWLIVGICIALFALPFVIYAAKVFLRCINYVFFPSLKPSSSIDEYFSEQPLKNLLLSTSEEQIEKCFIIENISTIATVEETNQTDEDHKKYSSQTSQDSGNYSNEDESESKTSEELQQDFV
# B1: suppressor of cytokine signaling 1 (SOCS1) (natural protein, human (endogenous in PBMC), UniProt O15524 1-211, looked up)
# chain: MVAHNQVAADNAVSTAAEPRRRPEPSSSSSSSPAAPARPRPCPAVPAPAPGDTHFRTFRSHADYRRITRASALLDACGFYWGPLSVHGAHERLRAEPVGTFLVRDSRQRNCFFALSVKMASGPTSIRVHFQAGRFHLDGSRESFDCLFELLEHYVAAPRRMLGAPLRQRRVRPLQELCRQRIVATVGRENLARIPLNPVLRDYLSSFPFQI
# notes: SOCS1, endogenous in human peripheral blood mononuclear cells; detected by blot with anti-SOCS1; source: endogenous, lysate of PBMC from SLE patients or healthy controls
# Tests used:
# [1] = molecular target: T1, IFNAR2 chain of the type I interferon …; assay: co-IP; lysates (50 µg total protein) of PBMC from SLE patients or healthy controls, cultured in medium alone or with 50 U/ml IFNβ for 0, 30 min, 1 h and 4 h; incubated overnight at 4°C with mouse anti-IFNAR1 (protein A-Sepharose 4B) and/or rabbit anti-IFNAR2 (protein G-Sepharose 4B); blotted for SOCS1, STAT2, Jak1 and Tyk2; conditions: partners not purified
# [2] = molecular target: T2, IFNAR1 chain of the type I interferon …; assay: as above; conditions: partners not purified
binder,measurement,setting,value
B1,fold increase of association one hour after IFNβ over unstimulated cells,[1],~6 fold
same,fold increase of association one hour after IFNβ over unstimulated cells,[2],< 1 fold
